Measured values taken from patent US20250145711A1 (Janssen / Centocor, published 2025).

What was measured:
[1] = biological target: T1, Human CD3 epsilon (CD3ε), on primary human pan T cells (human, UniProt P07766 23-207); experiment: cell-based or functional assay
[2] = biological target: T1, Human CD3 epsilon (CD3ε), on primary …; experiment: flow cytometry on human T cells, anti-human IgG Fc A647 detection
Experimental: The bsAbs were assayed for their abilities bind T cells and to induce T-cell mediated cytotoxicity against H929 cells (ATCC@CRL-9068™). […] Stain buffer with no antibody was added to bottom 4 wells and assign as background control (secondary antibody alone). Parental Cris7b, CD3B695 (bivalent mAb controls) and CD3B375 (bsAb which was monovalent for Cris-7b) were added also with full dose-response curves.
Frozen T-cells were thawed in a 37° C. water bath and transferred gently into conical tube containing warm 5 mL media (RPMI+10% FBS)/1 vial of 1×10⁶ cells. Cells were mixed and centrifuged for 5 minutes at 400×g followed by resuspension in flow staining buffer, and counted and viability checked. Cells were then plated in 50 uL/50,000 cells/well into assay plates. Assay positive control mAb was added in the first column in quadruplicates at 2× at 20 nM in the bottom 4 wells. Stain buffer with no mAb was added to the top 4 wells and assigned as background controls (secondary antibody alone). Serially diluted antibody samples were added at 50 uL/well using Intergra Viaflo according to the attached plate maps and incubated for 1 hr at 37° C. After one hour incubation, 150 uL staining buffer were added to all wells, and cells were spun at 500×g for 5 minutes to pellet cells. Cells were then washed prior to addition of Alexa Fluor 647 (A647) conjugated anti human IgG Fc specific secondary detection antibody at 2 ug/mL in staining buffer. Secondary detection antibody was added at 50 uL/well to the washed cells. Plates were covered with foil and incubated for 30 minutes on ice or in the fridge. 150 uL staining buffer were added to all wells, and cells were spun at 500×g for 5 min to pellet cells. Cells were resuspended in 20 uL running buffer containing 1:1000 dilution of SYTOX™ green dead cell stain and run plates on iQue® Screener flow cytometer (Essen BioScience, Inc.). Briefly, cells were gated on FCS vs. SCS dot plot to eliminate debris. Singlets were gated on SCS-A vs SCS-H dot plot and from singlet population, live cells gated choosing BL1 channel for low/negative with SYTOX™ green viability stain (Thermo Fisher).

[3] = biological target: T1, Human CD3 epsilon (CD3ε), on primary …; experiment: cell-based or functional assay; remark: listed apart in the source

T1 sequence (P07766 23-207 limits assumed): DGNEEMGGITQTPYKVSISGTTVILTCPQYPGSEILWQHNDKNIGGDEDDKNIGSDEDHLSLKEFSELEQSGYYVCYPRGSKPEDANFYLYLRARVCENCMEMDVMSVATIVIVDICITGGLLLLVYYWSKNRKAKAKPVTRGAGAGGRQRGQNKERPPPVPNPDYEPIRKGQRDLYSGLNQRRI

Binder	EC50 [2] [pM]	H929 Killing EC50 [1] [pM]	EC50, Cytotoxicity [3] [pM]
BC3B105 (bispecific antibody, human IgG1, kappa, L234A L235A, IgG1 BCMAxCD3; HC1: CD3B2030-N106S HL scFv-Fc; also called BC3B105.001; B2030 HL NtoS) QVQLVQSGAEVKKPGSSVKVSCKASGYTFTRSTMHWVKQAPGQGLEWIGYINPSSAYTNYNQKFQGRVTLTADKSTSTAYMELSSLRSEDTAVYYCASPQVHYDYSGFPYWGQGTLVTVSSGGSEGKSSGSGSESKSTGGSEIVLTQSPATLSASPGERVTLSCSASSSVSYMNWYQQKPGQAPRRWIYDSSKLASGVPARFSGSGSGRDYTLTISSLEPEDFAVYYCQQWSRNPPTFGGGTKVEIKEPKSSDKTHTCPPCPAPEAAGGPSVFLFPPKPKDTLMISRTPEVTCVVVSVSHEDPEVKFNWYVDGVEVHNAKTKPREEQYNSTYRVVSVLTVLHQDWLNGKEYKCKVSNKALPAPIEKTISKAKGQPREPQVYVYPPSREEMTKNQVSLTCLVKGFYPSDIAVEWESNGQPENNYKTTPPVLDSDGSFALVSKLTVDKSRWQQGNVFSCSVMHEALHNHYTQKSLSLSPG heavy: not shown light: EIVLTQSPGTLSLSPGERATLSCRASQSISSSFLTWYQQKPGQAPRLLIYGASSRATGIPDRFSGGGSGTDFTLTISRLEPEDFAVYYCQHYGSSPMYTFGQGTKLEIKRTVAAPSVFIFPPSDEQLKSGTASVVCLLNNFYPREAKVQWKVDNALQSGNSQESVTEQDSKDSTYSLSSTLTLSKADYEKHKVYACEVTHQGLSSPVTKSFNRGEC	20700	172	172
BC3B110 (bispecific antibody, human IgG1, kappa, L234A L235A, IgG1 BCMAxCD3; HC1: CD3B2051-N106S HL scFv-Fc; also called BC3B110.001; B2051 HL NtoS) QVQLVQSGAEVKKPGSSVKVSCKASGYTFTRSTMHWVKQAPGQGLEWMGYINPSSAYTNYNQKFQGRVTLTADKSTSTAYMELSSLRSEDTAVYYCASPQVHYDYSGFPYWGQGTLVTVSSGGSEGKSSGSGSESKSTGGSEIVLTQSPATLSASPGERVTLSCSASSSVSYMNWYQQKPGQAPRRLIYDSSKLASGVPARFSGSGSGRDYTLTISSLEPEDFAVYYCQQWSRNPPTFGGGTKVEIKEPKSSDKTHTCPPCPAPEAAGGPSVFLFPPKPKDTLMISRTPEVTCVVVSVSHEDPEVKFNWYVDGVEVHNAKTKPREEQYNSTYRVVSVLTVLHQDWLNGKEYKCKVSNKALPAPIEKTISKAKGQPREPQVYVYPPSREEMTKNQVSLTCLVKGFYPSDIAVEWESNGQPENNYKTTPPVLDSDGSFALVSKLTVDKSRWQQGNVFSCSVMHEALHNHYTQKSLSLSPG heavy: not shown light: EIVLTQSPGTLSLSPGERATLSCRASQSISSSFLTWYQQKPGQAPRLLIYGASSRATGIPDRFSGGGSGTDFTLTISRLEPEDFAVYYCQHYGSSPMYTFGQGTKLEIKRTVAAPSVFIFPPSDEQLKSGTASVVCLLNNFYPREAKVQWKVDNALQSGNSQESVTEQDSKDSTYSLSSTLTLSKADYEKHKVYACEVTHQGLSSPVTKSFNRGEC	31200	780	781
BC3B113 (bispecific antibody, human IgG1, kappa, L234A L235A, IgG1 BCMAxCD3; HC1: CD3B2089-N106G HL scFv-Fc; also called BC3B113.001; B2089 HL NtoG) QVQLVQSGAEVKKPGSSVKVSCKASGYTFTRSTMHWVRQAPGQGLEWMGYINPSSAYTNYAQKFQGRVTLTADKSTSTAYMELSSLRSEDTAVYYCASPQVHYDYGGFPYWGQGTLVTVSSGGSEGKSSGSGSESKSTGGSEIVLTQSPATLSASPGERVTLSCSASSSVSYMNWYQQKPGQAPRRWIYDSSKLASGVPARFSGSGSGRDYTLTISSLEPEDFAVYYCQQWSRNPPTFGGGTKVEIKEPKSSDKTHTCPPCPAPEAAGGPSVFLFPPKPKDTLMISRTPEVTCVVVSVSHEDPEVKFNWYVDGVEVHNAKTKPREEQYNSTYRVVSVLTVLHQDWLNGKEYKCKVSNKALPAPIEKTISKAKGQPREPQVYVYPPSREEMTKNQVSLTCLVKGFYPSDIAVEWESNGQPENNYKTTPPVLDSDGSFALVSKLTVDKSRWQQGNVFSCSVMHEALHNHYTQKSLSLSPG heavy: not shown light: EIVLTQSPGTLSLSPGERATLSCRASQSISSSFLTWYQQKPGQAPRLLIYGASSRATGIPDRFSGGGSGTDFTLTISRLEPEDFAVYYCQHYGSSPMYTFGQGTKLEIKRTVAAPSVFIFPPSDEQLKSGTASVVCLLNNFYPREAKVQWKVDNALQSGNSQESVTEQDSKDSTYSLSSTLTLSKADYEKHKVYACEVTHQGLSSPVTKSFNRGEC	11100	44.3	44.3
BC3B108 (bispecific antibody, human IgG1, kappa, L234A L235A, IgG1 BCMAxCD3; HC1: CD3B2051-N106G HL scFv-Fc; also called BC3B108.001; B2051 HL NtoG) QVQLVQSGAEVKKPGSSVKVSCKASGYTFTRSTMHWVKQAPGQGLEWMGYINPSSAYTNYNQKFQGRVTLTADKSTSTAYMELSSLRSEDTAVYYCASPQVHYDYGGFPYWGQGTLVTVSSGGSEGKSSGSGSESKSTGGSEIVLTQSPATLSASPGERVTLSCSASSSVSYMNWYQQKPGQAPRRLIYDSSKLASGVPARFSGSGSGRDYTLTISSLEPEDFAVYYCQQWSRNPPTFGGGTKVEIKEPKSSDKTHTCPPCPAPEAAGGPSVFLFPPKPKDTLMISRTPEVTCVVVSVSHEDPEVKFNWYVDGVEVHNAKTKPREEQYNSTYRVVSVLTVLHQDWLNGKEYKCKVSNKALPAPIEKTISKAKGQPREPQVYVYPPSREEMTKNQVSLTCLVKGFYPSDIAVEWESNGQPENNYKTTPPVLDSDGSFALVSKLTVDKSRWQQGNVFSCSVMHEALHNHYTQKSLSLSPG heavy: not shown light: EIVLTQSPGTLSLSPGERATLSCRASQSISSSFLTWYQQKPGQAPRLLIYGASSRATGIPDRFSGGGSGTDFTLTISRLEPEDFAVYYCQHYGSSPMYTFGQGTKLEIKRTVAAPSVFIFPPSDEQLKSGTASVVCLLNNFYPREAKVQWKVDNALQSGNSQESVTEQDSKDSTYSLSSTLTLSKADYEKHKVYACEVTHQGLSSPVTKSFNRGEC	11000	85.3	85.3

Continued by falling EC50 [2], values first:

EC50 [2] [pM]	Binder	H929 Killing EC50 [1] [pM]	EC50, Cytotoxicity [3] [pM]
13800	BC3B109 (bispecific antibody, human IgG1, kappa, L234A L235A, IgG1 BCMAxCD3; HC1: CD3B2051-N106Q HL scFv-Fc; also called BC3B109.001; B2051 HL NtoQ) QVQLVQSGAEVKKPGSSVKVSCKASGYTFTRSTMHWVKQAPGQGLEWMGYINPSSAYTNYNQKFQGRVTLTADKSTSTAYMELSSLRSEDTAVYYCASPQVHYDYQGFPYWGQGTLVTVSSGGSEGKSSGSGSESKSTGGSEIVLTQSPATLSASPGERVTLSCSASSSVSYMNWYQQKPGQAPRRLIYDSSKLASGVPARFSGSGSGRDYTLTISSLEPEDFAVYYCQQWSRNPPTFGGGTKVEIKEPKSSDKTHTCPPCPAPEAAGGPSVFLFPPKPKDTLMISRTPEVTCVVVSVSHEDPEVKFNWYVDGVEVHNAKTKPREEQYNSTYRVVSVLTVLHQDWLNGKEYKCKVSNKALPAPIEKTISKAKGQPREPQVYVYPPSREEMTKNQVSLTCLVKGFYPSDIAVEWESNGQPENNYKTTPPVLDSDGSFALVSKLTVDKSRWQQGNVFSCSVMHEALHNHYTQKSLSLSPG heavy: not shown light: EIVLTQSPGTLSLSPGERATLSCRASQSISSSFLTWYQQKPGQAPRLLIYGASSRATGIPDRFSGGGSGTDFTLTISRLEPEDFAVYYCQHYGSSPMYTFGQGTKLEIKRTVAAPSVFIFPPSDEQLKSGTASVVCLLNNFYPREAKVQWKVDNALQSGNSQESVTEQDSKDSTYSLSSTLTLSKADYEKHKVYACEVTHQGLSSPVTKSFNRGEC	42.6	42.6
8600	BC3B107 (bispecific antibody, human IgG1, kappa, L234A L235A, IgG1 BCMAxCD3; HC1: CD3B2051-N106A HL scFv-Fc; also called BC3B107.001; B2051 HL NtoA) QVQLVQSGAEVKKPGSSVKVSCKASGYTFTRSTMHWVKQAPGQGLEWMGYINPSSAYTNYNQKFQGRVTLTADKSTSTAYMELSSLRSEDTAVYYCASPQVHYDYAGFPYWGQGTLVTVSSGGSEGKSSGSGSESKSTGGSEIVLTQSPATLSASPGERVTLSCSASSSVSYMNWYQQKPGQAPRRLIYDSSKLASGVPARFSGSGSGRDYTLTISSLEPEDFAVYYCQQWSRNPPTFGGGTKVEIKEPKSSDKTHTCPPCPAPEAAGGPSVFLFPPKPKDTLMISRTPEVTCVVVSVSHEDPEVKFNWYVDGVEVHNAKTKPREEQYNSTYRVVSVLTVLHQDWLNGKEYKCKVSNKALPAPIEKTISKAKGQPREPQVYVYPPSREEMTKNQVSLTCLVKGFYPSDIAVEWESNGQPENNYKTTPPVLDSDGSFALVSKLTVDKSRWQQGNVFSCSVMHEALHNHYTQKSLSLSPG heavy: not shown light: EIVLTQSPGTLSLSPGERATLSCRASQSISSSFLTWYQQKPGQAPRLLIYGASSRATGIPDRFSGGGSGTDFTLTISRLEPEDFAVYYCQHYGSSPMYTFGQGTKLEIKRTVAAPSVFIFPPSDEQLKSGTASVVCLLNNFYPREAKVQWKVDNALQSGNSQESVTEQDSKDSTYSLSSTLTLSKADYEKHKVYACEVTHQGLSSPVTKSFNRGEC	41.5	41.5
3200	BC3B114 (bispecific antibody, human IgG1, kappa, L234A L235A, IgG1 BCMAxCD3; HC1: CD3B2089-N106Q HL scFv-Fc; also called BC3B114.001; B2089 HL NtoQ) QVQLVQSGAEVKKPGSSVKVSCKASGYTFTRSTMHWVRQAPGQGLEWMGYINPSSAYTNYAQKFQGRVTLTADKSTSTAYMELSSLRSEDTAVYYCASPQVHYDYQGFPYWGQGTLVTVSSGGSEGKSSGSGSESKSTGGSEIVLTQSPATLSASPGERVTLSCSASSSVSYMNWYQQKPGQAPRRWIYDSSKLASGVPARFSGSGSGRDYTLTISSLEPEDFAVYYCQQWSRNPPTFGGGTKVEIKEPKSSDKTHTCPPCPAPEAAGGPSVFLFPPKPKDTLMISRTPEVTCVVVSVSHEDPEVKFNWYVDGVEVHNAKTKPREEQYNSTYRVVSVLTVLHQDWLNGKEYKCKVSNKALPAPIEKTISKAKGQPREPQVYVYPPSREEMTKNQVSLTCLVKGFYPSDIAVEWESNGQPENNYKTTPPVLDSDGSFALVSKLTVDKSRWQQGNVFSCSVMHEALHNHYTQKSLSLSPG heavy: not shown light: EIVLTQSPGTLSLSPGERATLSCRASQSISSSFLTWYQQKPGQAPRLLIYGASSRATGIPDRFSGGGSGTDFTLTISRLEPEDFAVYYCQHYGSSPMYTFGQGTKLEIKRTVAAPSVFIFPPSDEQLKSGTASVVCLLNNFYPREAKVQWKVDNALQSGNSQESVTEQDSKDSTYSLSSTLTLSKADYEKHKVYACEVTHQGLSSPVTKSFNRGEC	12.6	12.5
